Paper PMC3293552

Target: Fluorescein-labeled ATS-FL Q150C variant (Plasmodium falciparum)
Experiment: fluorescence polarisation

PFI1780w fragment spanning residues 80-280 (PHISTc-type domain) (domain or fragment)
Kd: 150 µM
